In patent publication US20220041658A1 (PROTAGONIST THERAPEUTICS, published 2022):
Blank lines part the entries; values can stand above or below the binder they belong to. Positions of bridges follow the written chain, without caps; N, C: chain ends. Non-standard residues stand in square brackets, D forms with d. Trp(7-Me) = Cc1cccc2c(C[C@H](N)C(=O)O)c[nH]c12; 2Nal = N[C@@H](Cc1ccc2ccccc2c1)C(=O)O; AEF = NCCOc1ccc(C[C@H](N)C(=O)O)cc1; Cit = NC(=O)NCCC[C@H](N)C(=O)O; Pen = CC(C)(S)[C@H](N)C(=O)O; αMeK = C[C@](N)(CCCCN)C(=O)O; βAla = NCCC(=O)O

Target: T1, interleukin-23 receptor (IL-23R) (human, UniProt Q5VWK5 24-629)
T1 sequence (looked up): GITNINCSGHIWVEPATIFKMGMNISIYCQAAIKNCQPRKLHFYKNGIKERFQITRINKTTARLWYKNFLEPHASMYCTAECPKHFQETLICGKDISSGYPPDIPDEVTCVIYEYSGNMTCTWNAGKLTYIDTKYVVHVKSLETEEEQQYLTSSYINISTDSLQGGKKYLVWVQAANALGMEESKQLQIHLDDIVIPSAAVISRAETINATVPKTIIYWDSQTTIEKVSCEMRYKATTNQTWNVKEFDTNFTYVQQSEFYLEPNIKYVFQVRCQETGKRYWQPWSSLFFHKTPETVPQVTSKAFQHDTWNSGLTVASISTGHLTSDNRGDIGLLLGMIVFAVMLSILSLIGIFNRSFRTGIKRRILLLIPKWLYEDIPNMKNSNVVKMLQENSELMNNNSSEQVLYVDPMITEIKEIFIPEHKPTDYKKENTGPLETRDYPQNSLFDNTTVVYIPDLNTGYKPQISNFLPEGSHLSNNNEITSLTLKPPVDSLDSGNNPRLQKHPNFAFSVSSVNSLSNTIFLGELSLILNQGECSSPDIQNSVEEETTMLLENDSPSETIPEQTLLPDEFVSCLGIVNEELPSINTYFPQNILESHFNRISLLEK
Assay: cell-based or functional assay

pStat3 HTRF IC50: 10.1 nM
B1: Peptide of SEQ ID NO: 269 (peptide)
peptide: XNTXQXXXXKLX
modifications: Ac-[Pen]-N-T-[W(7-Me)]-Q-[Pen]-Phe[4-(2-aminoethoxy)]-[2-Nal]-[a-MeLys]-[Lys(Ac)]-L-[bA]-NH2; Pen-Pen disulfide

pStat3 HTRF IC50: 5.97 nM
B2: Peptide of SEQ ID NO: 279 (peptide)
peptide: XNTXQXXXXXXX
modifications: Ac-[Pen]-N-T-[W(7-Me)]-Q-[Pen]-Phe[4-(2-aminoethoxy)]-[2-Nal]-[a-MeLys]-[Cit]-[bA]-[bA]-NH2; Pen-Pen disulfide

pStat3 HTRF IC50: 0.996 nM
B3: Peptide of SEQ ID NO: 262 (peptide)
peptide: Ac-[Pen]NT[Trp(7-Me)][Cit][Pen][AEF][2Nal][αMeK]K(Ac)NT-NH2
modifications: disulfide 1-6
SMILES: CC(=O)NCCCC[C@H](NC(=O)[C@](C)(CCCCN)NC(=O)[C@H](Cc1ccc2ccccc2c1)NC(=O)[C@H](Cc1ccc(OCCN)cc1)NC(=O)[C@H]1NC(=O)[C@H](CCCNC(N)=O)NC(=O)[C@H](Cc2c[nH]c3c(C)cccc23)NC(=O)[C@H]([C@@H](C)O)NC(=O)[C@H](CC(N)=O)NC(=O)[C@@H](NC(C)=O)C(C)(C)SSC1(C)C)C(=O)N[C@@H](CC(N)=O)C(=O)N[C@H](C(N)=O)[C@@H](C)O

pStat3 HTRF IC50: 0.484 nM
B4: Peptide of SEQ ID NO: 274 (peptide)
peptide: XNTXQXXXXKNX
modifications: Ac-[Pen]-N-T-[W(7-Me)]-Q-[Pen]-Phe[4-(2-aminoethoxy)]-[2-Nal]-[Achc]-[Lys(Ac)]-N-[bA]-NH2; Pen-Pen disulfide

pStat3 HTRF IC50: 4.43 nM
B5: Peptide of SEQ ID NO: 270 (peptide)
peptide: XNTXKXXXXKXX
modifications: Ac-[Pen]-N-T-[W(7-Me)]-[Lys(Ac)]-[Pen]-Phe[4-(2-aminoethoxy)]-[2-Nal]-[a-MeLys]-[Lys(Ac)]-[bA]-[bA]-NH2; Pen-Pen disulfide

pStat3 HTRF IC50: 0.639 nM
B6: Peptide of SEQ ID NO: 277 (peptide)
peptide: XNTXQXXXXKNX
modifications: Ac-[Pen]-N-T-[W(7-Me)]-Q-[Pen]-Phe[4-(2-aminoethoxy)]-[2-Nal]-[Acbc]-[Lys(Ac)]-N-[bA]-NH2; Pen-Pen disulfide

pStat3 HTRF IC50: 3.88 nM
B7: Peptide of SEQ ID NO: 257 (peptide)
peptide: Ac-[Pen]NT[Trp(7-Me)][Cit][Pen][AEF][2Nal][αMeK]K(Ac)N[dF]-NH2
modifications: disulfide 1-6
SMILES: CC(=O)NCCCC[C@H](NC(=O)[C@](C)(CCCCN)NC(=O)[C@H](Cc1ccc2ccccc2c1)NC(=O)[C@H](Cc1ccc(OCCN)cc1)NC(=O)[C@H]1NC(=O)[C@H](CCCNC(N)=O)NC(=O)[C@H](Cc2c[nH]c3c(C)cccc23)NC(=O)[C@H]([C@@H](C)O)NC(=O)[C@H](CC(N)=O)NC(=O)[C@@H](NC(C)=O)C(C)(C)SSC1(C)C)C(=O)N[C@@H](CC(N)=O)C(=O)N[C@H](Cc1ccccc1)C(N)=O

pStat3 HTRF IC50: 0.754 nM
Binder: Ac-[Pen]NT[Trp(7-Me)][Cit][Pen][AEF][2Nal][αMeK]K(Ac)N[dR]-NH2 (disulfide 1-6) [Peptide of SEQ ID NO: 256]

pStat3 HTRF IC50: 2.5 nM
B8: Peptide of SEQ ID NO: 255 (peptide)
peptide: XNTXKXXXXKNI
modifications: Ac-[Pen]-NT-[W(7-Me)]-[Lys(Ac)]-[Pen]-Phe[4-(2-aminoethoxy)]-[2-Nal]-[a-MeLys]-[Lys(Ac)]-N-I-NH2; Pen-Pen disulfide

pStat3 HTRF IC50: 17.7 nM
B9: Peptide of SEQ ID NO: 281 (peptide)
peptide: Ac-[Pen]NT[Trp(7-Me)][Cit][Pen][AEF][2Nal][αMeK][Cit][βAla][βAla]-NH2
modifications: disulfide 1-6
SMILES: CC(=O)N[C@@H]1C(=O)N[C@@H](CC(N)=O)C(=O)N[C@@H]([C@@H](C)O)C(=O)N[C@@H](Cc2c[nH]c3c(C)cccc23)C(=O)N[C@@H](CCCNC(N)=O)C(=O)N[C@H](C(=O)N[C@@H](Cc2ccc(OCCN)cc2)C(=O)N[C@@H](Cc2ccc3ccccc3c2)C(=O)N[C@@](C)(CCCCN)C(=O)N[C@@H](CCCNC(N)=O)C(=O)NCCC(=O)NCCC(N)=O)C(C)(C)SSC1(C)C

pStat3 HTRF IC50: 17.1 nM
B10: Peptide of SEQ ID NO: 280 (peptide)
peptide: Ac-[Pen]NTX[Cit][Pen][AEF][2Nal][αMeK]K(Ac)[βAla][βAla]-NH2
modifications: disulfide 1-6; not fully specified (residue 4); printed as Ac-[Pen]-N-T-[W(1-Me)]-[Cit]-[Pen]-Phe[4-(2-aminoethoxy)]-[2-Nal]-[a-MeLys]-[Lys(Ac)]-[bA]-[bA]-NH2, Pen-Pen disulfide

pStat3 HTRF IC50: 3.65 nM
B11: Peptide of SEQ ID NO: 254 (peptide)
peptide: XNTXKXXXXKNP
modifications: Ac-[Pen]-NT-[W(7-Me)]-[Lys(Ac)]-[Pen]-Phe[4-(2-aminoethoxy)]-[2-Nal]-[a-MeLys]-[Lys(Ac)]-N-[(D)Pro]-NH2; Pen-Pen disulfide

pStat3 HTRF IC50: 1.91 nM
B12: Peptide of SEQ ID NO: 271 (peptide)
peptide: XNTXKXXXXKSX
modifications: Ac-[Pen]-N-T-[W(7-Me)]-[Lys(Ac)]-[Pen]-Phe[4-(2-aminoethoxy)]-[2-Nal]-[a-MeLys]-[Lys(Ac)]-S-[bA]-NH2; Pen-Pen disulfide

pStat3 HTRF IC50: 0.849 nM
B13: Peptide of SEQ ID NO: 278 (peptide)
peptide: XNTXQXXXXKNX
modifications: Ac-[Pen]-N-T-[W(7-Me)]-Q-[Pen]-Phe[4-(2-aminoethoxy)]-[2-Nal]-[a-MeOrn]-[Lys(Ac)]-N-[bA]-NH2; Pen-Pen disulfide

pStat3 HTRF IC50: 0.564 nM
B14: Peptide of SEQ ID NO: 276 (peptide)
peptide: XNTXQXXXXKNX
modifications: Ac-[Pen]-N-T-[W(7-Me)]-Q-[Pen]-Phe[4-(2-aminoethoxy)]-[2-Nal]-[DiethylGly]-[Lys(Ac)]-N-[bA]-NH2; Pen-Pen disulfide

pStat3 HTRF IC50: 2.78 nM
B15: Peptide of SEQ ID NO: 266 (peptide)
peptide: Ac-[Pen]NT[Trp(7-Me)][Cit][Pen][AEF][2Nal][αMeK]K(Ac)NY-NH2
modifications: disulfide 1-6
SMILES: CC(=O)NCCCC[C@H](NC(=O)[C@](C)(CCCCN)NC(=O)[C@H](Cc1ccc2ccccc2c1)NC(=O)[C@H](Cc1ccc(OCCN)cc1)NC(=O)[C@H]1NC(=O)[C@H](CCCNC(N)=O)NC(=O)[C@H](Cc2c[nH]c3c(C)cccc23)NC(=O)[C@H]([C@@H](C)O)NC(=O)[C@H](CC(N)=O)NC(=O)[C@@H](NC(C)=O)C(C)(C)SSC1(C)C)C(=O)N[C@@H](CC(N)=O)C(=O)N[C@@H](Cc1ccc(O)cc1)C(N)=O

pStat3 HTRF IC50: 2.17 nM
B16: Peptide of SEQ ID NO: 275 (peptide)
peptide: XNTXQXXXXKNX
modifications: Ac-[Pen]-N-T-[W(7-Me)]-Q-[Pen]-Phe[4-(2-aminoethoxy)]-[2-Nal]-[Spiral_Pip]-[Lys(Ac)]-N-[bA]-NH2; Pen-Pen disulfide

pStat3 HTRF IC50: 7.13 nM
B17: Peptide of SEQ ID NO: 272 (peptide)
peptide: XNTXKXXXXKHX
modifications: Ac-[Pen]-N-T-[W(7-Me)]-[Lys(Ac)]-[Pen]-Phe[4-(2-aminoethoxy)]-[2-Nal]-[a-MeLys]-[Lys(Ac)]-H-[bA]-NH2; Pen-Pen disulfide

pStat3 HTRF IC50: 0.506 nM
B18: Peptide of SEQ ID NO: 267 (peptide)
peptide: XNTXQXXXXKNX
modifications: Ac-[Pen]-NT-[W(7-Me)]-Q-[Pen]-Phe[4-(2-aminoethoxy)]-[2-Nal]-[a-MeLys]-[Lys(Ac)]-N-[bA]-NH2; Pen-Pen disulfide

pStat3 HTRF IC50: 0.699 nM
B19: Peptide of SEQ ID NO: 260 (peptide)
peptide: Ac-[Pen]NT[Trp(7-Me)][Cit][Pen][AEF][2Nal][αMeK]K(Ac)NS-NH2
modifications: disulfide 1-6
SMILES: CC(=O)NCCCC[C@H](NC(=O)[C@](C)(CCCCN)NC(=O)[C@H](Cc1ccc2ccccc2c1)NC(=O)[C@H](Cc1ccc(OCCN)cc1)NC(=O)[C@H]1NC(=O)[C@H](CCCNC(N)=O)NC(=O)[C@H](Cc2c[nH]c3c(C)cccc23)NC(=O)[C@H]([C@@H](C)O)NC(=O)[C@H](CC(N)=O)NC(=O)[C@@H](NC(C)=O)C(C)(C)SSC1(C)C)C(=O)N[C@@H](CC(N)=O)C(=O)N[C@@H](CO)C(N)=O

pStat3 HTRF IC50: 0.603 nM
B20: Peptide of SEQ ID NO: 263 (peptide)
peptide: Ac-[Pen]NT[Trp(7-Me)][Cit][Pen][AEF][2Nal][αMeK]K(Ac)N[dT]-NH2
modifications: disulfide 1-6
SMILES: CC(=O)NCCCC[C@H](NC(=O)[C@](C)(CCCCN)NC(=O)[C@H](Cc1ccc2ccccc2c1)NC(=O)[C@H](Cc1ccc(OCCN)cc1)NC(=O)[C@H]1NC(=O)[C@H](CCCNC(N)=O)NC(=O)[C@H](Cc2c[nH]c3c(C)cccc23)NC(=O)[C@H]([C@@H](C)O)NC(=O)[C@H](CC(N)=O)NC(=O)[C@@H](NC(C)=O)C(C)(C)SSC1(C)C)C(=O)N[C@@H](CC(N)=O)C(=O)N[C@@H](C(N)=O)[C@H](C)O

pStat3 HTRF IC50: 2.69 nM
B21: Peptide of SEQ ID NO: 273 (peptide)
peptide: XNTXKXXXXEXX
modifications: Ac-[Pen]-N-T-[W(7-Me)]-[Lys(Ac)]-[Pen]-Phe[4-(2-aminoethoxy)]-[2-Nal]-[a-MeLys]-E-[bA]-[bA]-NH2; Pen-Pen disulfide

pStat3 HTRF IC50: 3.24 nM
B22: Peptide of SEQ ID NO: 268 (peptide)
peptide: Ac-[Pen]NT[Trp(7-Me)][Cit][Pen][AEF][2Nal][αMeK]K(Ac)[βAla][βAla]-NH2
modifications: disulfide 1-6
SMILES: CC(=O)NCCCC[C@H](NC(=O)[C@](C)(CCCCN)NC(=O)[C@H](Cc1ccc2ccccc2c1)NC(=O)[C@H](Cc1ccc(OCCN)cc1)NC(=O)[C@H]1NC(=O)[C@H](CCCNC(N)=O)NC(=O)[C@H](Cc2c[nH]c3c(C)cccc23)NC(=O)[C@H]([C@@H](C)O)NC(=O)[C@H](CC(N)=O)NC(=O)[C@@H](NC(C)=O)C(C)(C)SSC1(C)C)C(=O)NCCC(=O)NCCC(N)=O
